In US20100233714 one finds Ka data, which are given here for 20 sequences.

Where two headings read alike, the source gives them in different places.

The test system of series [1] is IgG, polyclonal mouse (Mus musculus). Description: filter. To be noted: pH 6, 41 mM Na+.
Series [2] concerns IgG Fab2 fragment (mouse) (Mus musculus). The experiment in a line: filter. To be noted: pH 6, 41 mM Na+.
The test system of series [3] is IgM, monoclonal human (Homo sapiens). The experiment in a line: filter. To be noted: pH 6, 41 mM Na+.
The test system of series [4] is IgG, polyclonal mixed human (Homo sapiens). The experiment in a line: filter. The conditions noted are these: pH 6, 41 mM Na+.
The subject of series [5] is IgA, monoclonal human (Homo sapiens). The experiment in a line: filter. The conditions noted are these: pH 6, 41 mM Na+.
For series [6], the system named is IgG Fab2 fragment (human) (Homo sapiens). Description: filter. The conditions noted are these: pH 6, 41 mM Na+.
Series [7] deals with IgG2, monoclonal human (Homo sapiens). The experiment in a line: filter. To be noted: pH 6, 41 mM Na+.
Series [8] has as its system IgG1, monoclonal human (Homo sapiens). Description: filter. The conditions noted are these: pH 6, 41 mM Na+.
Series [9] concerns IgG3, monoclonal human (Homo sapiens). Description: filter. The conditions noted are these: pH 6, 41 mM Na+.
Series [10] deals with IgG Fc fragment (human) (Homo sapiens), P01857-1. The experiment in a line: filter. To be noted: pH 6, 41 mM Na+.
In series [11] the test system is IgG4, monoclonal human (Homo sapiens). The conditions noted are these: ultrafiltration, Picogreen, 37.5 mM NaCl, 3.75 mM Na citrate, pH 6.0.
Series [12] deals with IgG3, monoclonal human (Homo sapiens). To be noted: ultrafiltration, Picogreen; 37.5 mM NaCl, 3.75 mM Na citrate, pH 6.0.
Where [13] appears, read: hexaethylene glycol (HEG, iSp18) linkers as loops.

For CCCTCCCTGGGCTTTTTTTGATTTTTCTTAA [RAD4], the Ka is 7.71 log10 M-1 in series [1]; 7.09 log10 M-1 in series [2]; 6.89 log10 M-1 in series [3]; 8.13 log10 M-1 in [4] (pH5 8.48, pH7 7.10, pH8 7.02, Table 2 pH 6 6.89); 7.66 log10 M-1 in series [5]; 6.89 log10 M-1 in series [6]. In addition, the Ka in series [7] was 7.67 log10 M-1; in [8], 7.52 log10 M-1; in [9] it was 6.66 log10 M-1; in series [10], 5.26 log10 M-1; in series [11] it was 7.13 log10 M-1.
As for CCTCTTCCTTCTCCGGAGAAG [RAD1], the Ka in series [11] (hexaethylene glycol (iSp18) linkers between the three segments) was 6.37 log10 M-1.
For CCTCTTCHEGCTTCTCCHEGGGAGAAG [RAD1], the Ka was 6.6 log10 M-1 in series [1] (setting [13]); 6.38 log10 M-1 in series [2] (setting [13]); 6.32 log10 M-1 in [3] (setting [13]); 6.51 log10 M-1 in series [4] (hexaethylene glycol (HEG, iSp18) linkers as loops, ultrafiltration, pH5 7.45, pH7 6.49, pH8 6.30, Table 2 (0.15 M NaCl, 1 mM MgCl2, pH 6) 7.01); 6.37 log10 M-1 in series [5] (setting [13]); 5.82 log10 M-1 in series [6] (setting [13]). The Ka in series [7] (setting [13]) was 6.51 log10 M-1; in [8] (setting [13]) it was 6.38 log10 M-1; in [9] (setting [13]) it was 6.17 log10 M-1; in [10] (setting [13]), 5.8 log10 M-1.
CCTCTTCTTTTTCTTCTC [RAD20]: the Ka in series [1] was 8.3 log10 M-1; in [2], 7.41 log10 M-1; in series [3], 7.02 log10 M-1; in [4] (pH5 8.11, pH7 7.40, pH8 6.64), 7.98 log10 M-1; in [5] it was 7.53 log10 M-1; in [6], 6.9 log10 M-1. The Ka is 7.85 log10 M-1 in series [7]; 7.34 log10 M-1 in [8]; 6.84 log10 M-1 in [9]; 5.96 log10 M-1 in [10]; 7.67 log10 M-1 in [11].
Take “CCTCTTCTTTTTCTTCTCCTTTTTGGAGAAG [RAD2 (triplex 31mer)]”: the Ka was 7.49 log10 M-1 in series [1]; 6.71 log10 M-1 in series [2]; 6.73 log10 M-1 in [3]; 7.61 log10 M-1 in [4] (pH5 8.74, pH7 6.96, pH8 6.57, Table 2 pH 6 6.96); 6.9 log10 M-1 in series [5]; 6.45 log10 M-1 in series [6]. Besides, the Ka in series [7] was 7.06 log10 M-1; in [8], 7.04 log10 M-1; in series [9], 6.64 log10 M-1; in series [10], 5.86 log10 M-1; in series [11] it was 7.08 log10 M-1.
For the sequence CCTTCCTTTGGAAGGTTG [RAD23], the Ka was 6.77 log10 M-1 in [1]; 6.33 log10 M-1 in series [2]; 6.08 log10 M-1 in series [3]; 6.88 log10 M-1 in series [4] (pH5 7.37, pH7 6.31, pH8 6.21); 6.38 log10 M-1 in [5]; 5.64 log10 M-1 in series [6]. In addition, the Ka was 6.86 log10 M-1 in series [7], 6.14 log10 M-1 in series [8], 5.62 log10 M-1 in series [9] and 5.97 log10 M-1 in series [11].
On to CGCGAAAACGCG [RAD22], for which the Ka in [4] (pH5 5.95, pH7 6.04, pH8 5.97) is 6.25 log10 M-1.
In the case of CTCTCTCTTTTTCTCTCTCTTTTTGAGAGAG [RAD9], the Ka in series [1] was 7.46 log10 M-1; in [2], 6.75 log10 M-1; in [3], 6.79 log10 M-1; in [4] (pH5 8.67, pH7 7.04, pH8 6.94, Table 2 pH 6 7.02), 7.74 log10 M-1; in [5] it was 6.95 log10 M-1; in series [6] it was 6.44 log10 M-1. Further, the Ka is 7.05 log10 M-1 in series [7]; 7.05 log10 M-1 in series [8]; 5.87 log10 M-1 in series [10]; 7.06 log10 M-1 in series [11]; 6.62 log10 M-1 in series [12].
GAGAGAGTTTTTGAGAGAGTTTTTCTCTCTC [RAD7]: the Ka in series [1] was 7.69 log10 M-1; in [2], 6.97 log10 M-1; in [3] it was 6.89 log10 M-1; in series [4] (pH5 8.51, pH7 6.97, pH8 6.79, Table 2 pH 6 6.86), 8.04 log10 M-1; in series [5] it was 7.33 log10 M-1; in series [6], 6.68 log10 M-1. In addition, the Ka in series [7] was 7.25 log10 M-1; in series [8] it was 7.3 log10 M-1; in [9], 6.74 log10 M-1; in [10], 5.99 log10 M-1; in series [11], 7.16 log10 M-1.
Consider GAGTGAGTCTCAGTTAGTTTCGATTGATTCT [RAD5], for which the Ka in series [4] (pH5 8.75, pH7 7.11, pH8 6.81, Table 2 pH 6 6.82) was 8.03 log10 M-1.
As for GGAAAGGTTTTTGGAAAGGTTTTTCCTTTCC [RAD6], in series [4] (pH5 8.50, pH7 6.86, pH8 6.74, Table 2 pH 6 6.84), the Ka is 7.96 log10 M-1.
For the sequence GGTTGGTTTGGTTGG [RAD13], the Ka in series [4] (pH5 7.55, pH7 6.46, pH8 6.53) is 6.96 log10 M-1.
Regarding TGGAGTCTGCGCGAGTCAGCGCTCAAGATC [RAD8], in series [4] (pH5 8.41, pH7 6.86, pH8 6.84, Table 2 pH 6 6.13), the Ka is 7.85 log10 M-1.
As for TGGGCCGGTAACGGATTACCGTAAGGTCCC [RAD11], the Ka in series [4] (pH5 8.31, pH7 6.85, pH8 6.85, Table 2 pH 6 6.51) is 7.64 log10 M-1.
With TGGGCCGGTAACGGGTTACCGTAAGGTCCC [RAD10], the Ka was 7.53 log10 M-1 in series [1]; 6.76 log10 M-1 in series [2]; 6.7 log10 M-1 in series [3]; 7.65 log10 M-1 in series [4] (pH5 8.41, pH7 6.81, pH8 6.72, Table 2 pH 6 6.31); 6.92 log10 M-1 in [5]; 6.43 log10 M-1 in series [6]. Moreover, the Ka is 7.01 log10 M-1 in [7]; 7.04 log10 M-1 in series [8]; 5.92 log10 M-1 in series [10]; 7 log10 M-1 in [11]; 6.62 log10 M-1 in [12].
Consider TGGTTGGTTTTTGGAAGGATTTTTTCCTTCC [RAD3], for which the Ka in [1] is 7.69 log10 M-1; in series [2], 7.09 log10 M-1; in series [3], 6.71 log10 M-1; in series [4] (pH5 8.60, pH7 6.86, pH8 6.76, Table 2 pH 6 6.71), 7.79 log10 M-1; in series [5] it was 7.38 log10 M-1; in series [6] it was 6.97 log10 M-1. Further, the Ka in series [7] is 7.36 log10 M-1; in series [8] it was 7.45 log10 M-1; in series [9] it was 6.69 log10 M-1; in series [10], 6.34 log10 M-1; in series [11] it was 7.2 log10 M-1.
TTTGGTTGGTTTGGTTGG [RAD19]: the Ka in [4] (inosine (I) at printed positions [inosine (written G): 4,14], pH5 7.82, pH7 6.50, pH8 6.04) was 7.14 log10 M-1.
TTTTCGCGCGTACGCGCGCGAA [RAD15]: the Ka is 6.35 log10 M-1 in series [1]; 6.21 log10 M-1 in series [2]; 6.19 log10 M-1 in series [3]; 7 log10 M-1 in [4] (pH5 7.65, pH7 6.33, pH8 6.19); 6.23 log10 M-1 in series [5]; 5.33 log10 M-1 in series [6]. For the same sequence, the Ka is 6.18 log10 M-1 in series [7], 6.39 log10 M-1 in [8], 6.13 log10 M-1 in series [11] and 6.22 log10 M-1 in series [12].
Consider TTTTCGCGCGTTAACGCGCGAA [RAD16], for which the Ka in series [1] is 7.07 log10 M-1; in [2] it was 6.11 log10 M-1; in series [3], 6.26 log10 M-1; in series [4] (pH5 8.22, pH7 7.25, pH8 6.79) it was 7.8 log10 M-1; in series [5], 6.46 log10 M-1; in series [6] it was 6.23 log10 M-1. In addition, the Ka in series [7] is 6.11 log10 M-1; in series [8], 6.87 log10 M-1; in series [11], 6.54 log10 M-1; in series [12], 6.31 log10 M-1.
For the sequence TTTTCGCGTGTGTGCGCGAA [RAD12], the Ka in series [4] (pH5 7.61, pH7 6.37, pH8 5.74) is 6.98 log10 M-1.
